Substitutions are numbered along the chain they refer to. Some results are limits rather than exact numbers.

Assay [1] addresses T1, recombinant human CD3 epsilon/gamma heterodimer (human, UniProt P07766 23-126; P09693 23-116).
T1 construct: Recombinant protein in solution (200-50 nM) in the Octet assay; also called hCD3 E/G
Put plainly: Octet BLI, mAb on FAB2G sensor, hCD3 E/G 200-50 nM; R^2 0.91. (In general: In BLI a coated tip is dipped into the sample, and binding shifts an interference pattern.)
Procedure: (§1) Samples were evaluated by flow cytometry analysis against Jurkat and human Pan-T cells (FIG. 1B) as well as by Octet against recombinant human CD3 proteins to evaluate apparent affinities and binding off-rates (Table 6, infra).

Assay [2] addresses T2, recombinant human CD3 epsilon/delta heterodimer (human, UniProt P07766 23-126; P04234 22-105).
T2 construct: Recombinant protein in solution (200-50 nM) in the Octet assay; also called hCD3 E/D; human CD3E/D
Put plainly: Octet BLI, mAb on FAB2G sensor, hCD3 E/D 200-50 nM; R^2 0.97.
Procedure: as §1

Assay [3] concerns the target T3, recombinant CD3 proteins (UniProt P07766 23-126).
T3 construct: elsewhere it uses human CD3 E/D and E/G heterodimers
Put plainly: Octet BLI, recombinant CD3; Full R^2 0.9943.

The target of assay [4] is T4, human CD3 (TCR/CD3 complex) on the cell surface (human, UniProt P07766 23-207; P09693 23-182; P04234 22-171; P20963 22-164).
T4 construct: whole, on cells; also called CD3 on Pan-T cells; CD3 on Jurkat WT cells
T4 sequence (P07766 23-207, chain 1 of 4): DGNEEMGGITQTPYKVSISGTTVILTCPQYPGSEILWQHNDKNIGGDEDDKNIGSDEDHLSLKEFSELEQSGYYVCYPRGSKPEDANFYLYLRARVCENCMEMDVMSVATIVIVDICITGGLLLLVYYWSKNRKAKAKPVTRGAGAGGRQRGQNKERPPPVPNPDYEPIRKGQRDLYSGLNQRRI
T4 sequence (P09693 23-182, chain 2 of 4): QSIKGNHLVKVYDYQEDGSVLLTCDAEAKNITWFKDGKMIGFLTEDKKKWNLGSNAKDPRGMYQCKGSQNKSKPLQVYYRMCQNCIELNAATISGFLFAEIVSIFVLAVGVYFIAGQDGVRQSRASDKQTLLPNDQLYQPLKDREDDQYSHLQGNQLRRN
T4 sequence (P04234 22-171, chain 3 of 4): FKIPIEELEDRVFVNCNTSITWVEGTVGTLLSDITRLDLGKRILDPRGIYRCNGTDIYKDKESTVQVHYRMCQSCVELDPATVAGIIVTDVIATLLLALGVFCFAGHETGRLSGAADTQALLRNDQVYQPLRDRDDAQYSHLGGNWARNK
T4 sequence (P20963 22-164, chain 4 of 4): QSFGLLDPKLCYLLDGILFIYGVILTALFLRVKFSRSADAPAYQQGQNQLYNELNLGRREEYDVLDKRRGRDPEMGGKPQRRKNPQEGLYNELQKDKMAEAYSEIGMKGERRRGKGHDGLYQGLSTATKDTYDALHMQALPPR
Briefly: flow cytometry, Pan-T cells, 10 ug/mL.

The target of assay [5] is T4, human CD3 (TCR/CD3 complex) on the cell …. Put plainly: flow cytometry, Jurkat WT cells, 1 ug/mL. A general note: In flow cytometry, cells or beads pass a laser one at a time.
The target is the same in assay [6]. Briefly: flow cytometry, gMFI Jurkat WT over Jurkat TCRb KO, 10 ug/mL.
For assay [7] the target is unchanged. Briefly: flow cytometry, Pan-T cells, 1 ug/mL.
Assay [8] deals with T3, recombinant CD3 proteins. Briefly: Octet BLI, recombinant CD3; Full R^2 0.995.
The target of assay [9] is T4, human CD3 (TCR/CD3 complex) on the cell …. Briefly: flow cytometry, gMFI Jurkat WT over Jurkat TCRb KO, 1 ug/mL.
Assay [10] has the same target. Put plainly: flow cytometry, Jurkat WT cells, 10 ug/mL.
In assay [11] the target is T3, recombinant CD3 proteins. Put plainly: Octet BLI, recombinant CD3; Full R^2 0.951.
For assay [12], the target named is T3, recombinant CD3 proteins. Put plainly: Octet BLI, recombinant CD3; Full R^2 0.999.
In assay [13] the target is T3, recombinant CD3 proteins. Briefly: Octet BLI, recombinant CD3; Full R^2 0.557*.
The target of assay [14] is T3, recombinant CD3 proteins. Put plainly: Octet BLI, recombinant CD3; Full R^2 0*.
Assay [15] has as its target T3, recombinant CD3 proteins. Put plainly: Octet BLI, recombinant CD3; Full R^2 0.000*.
Assay [16] concerns the target T2, recombinant human CD3 epsilon/delta …. Put plainly: Octet BLI, mAb on FAB2G sensor, hCD3 E/D 200-50 nM; R^2 0.99.
In assay [17] the target is T1, recombinant human CD3 epsilon/gamma …. Briefly: Octet BLI, mAb on FAB2G sensor, hCD3 E/G 200-50 nM; R^2 0.63.
Procedure: as §1

T2 sequence (P07766 23-126, stated change not applied, chain 1 of 2): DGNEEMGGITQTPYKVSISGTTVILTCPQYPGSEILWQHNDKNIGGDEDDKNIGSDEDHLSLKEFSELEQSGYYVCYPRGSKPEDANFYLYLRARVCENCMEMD
T2 sequence (P04234 22-105, stated change not applied, chain 2 of 2): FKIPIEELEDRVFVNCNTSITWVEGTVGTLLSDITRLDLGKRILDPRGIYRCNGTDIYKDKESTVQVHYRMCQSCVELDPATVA
T1 sequence (P07766 23-126, chain 1 of 2): as the sequence (P07766 23-126, stated change not applied, chain 1 of 2) above
T1 sequence (P09693 23-116, chain 2 of 2): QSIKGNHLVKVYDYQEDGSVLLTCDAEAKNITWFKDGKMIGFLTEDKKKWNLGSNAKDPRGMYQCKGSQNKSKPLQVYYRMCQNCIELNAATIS
T3 sequence (P07766 23-126): as the sequence (P07766 23-126, stated change not applied, chain 1 of 2) above

B1: ABL-CD3-17 (antibody, V domains shown)
VH: EVQLVESGGGLVQPGGSLRLSCAASGFTFSRYSINWVRQAPGKGLEWVSYISSSSSTIYYADSVKGRFTISRDNAKNSLYLQMNSLRDEDTAVYYCARERWELLYFDYWGQGTLVTVSS
VL: NFMLTQPHSVSESPGKTVTISCTRSSGSIASKYVQWYQQRPGSSPTTVIYEDNQRPSGVPDRFSGSIDSSSNSASLTISGLKTEDEADYYCQSYDSNNRVFGGGTKLTVL
notes: Chimeric hybridoma mAb: human V, CH1, upper hinge; mouse middle hinge, CH2, CH3
As for B1, in assay [1], the Kd came to 210 nM, the koff was determined as 0.132 s⁻¹ and the kon came to 627000 M⁻¹ s⁻¹. In assay [2], the Kd came out at 103 nM, the Response was determined as 0.22, the koff was 0.0318 s⁻¹ and the kon amounted to 309000 M⁻¹ s⁻¹.

B2: Control Humanized anti-CD3 (high affinity) scFv-Fc knob/TM (bispecific antibody)
scFv: EVQLVESGGGLVQPGGSLRLSCAASGFTFSTYAMNWVRQAPGKGLEWVGRIRSKYNNYATYYADSVKGRFTISRDDSKNTLYLQMNSLRAEDTAVYYCVRHGNFGDSYVSWFAYWGQGTLVTVSSGKPGSGKPGSGKPGSGKPGSQAVVTQEPSLTVSPGGTVTLTCGSSTGAVTTSNYANWVQQKPGKSPRGLIGGTNKRAPGVPARFSGSLLGGKAALTISGAQPEDEADYYCALWYSNHWVFGGGTKLTVLGGGGSDKTHTCPPCPAPEFEGGPSVFLFPPKPKDTLMISRTPEVTCVVVDVSHEDPEVKFNWYVDGVEVHNAKTKPREEQYNSTYRVVSVLTVLHQDWLNGKEYKCKVSNKALPASIEKTISKAKGQPREPQVYTLPPCREEMTKNQVSLWCLVKGFYPSDIAVEWESNGQPENNYKTTPPVLDSDGSFFLYSKLTVDKSRWQQGNVFSCSVMHEALHNHYTQKSLSLSPGK
heavy: EVQLVQSGAEVKKPGSSVKVSCKASGYTITDSNIHWVRQAPGQSLEWIGYIYPYNGGTDYNQKFKNRATLTVDNPTNTAYMELSSLRSEDTAFYYCVNGNPWLAYWGQGTLVTVSSASTKGPSVFPLAPSSKSTSGGTAALGCLVKDYFPEPVTVSWNSGALTSGVHTFPAVLQSSGLYSLSSVVTVPSSSLGTQTYICNVNHKPSNTKVDKRVEPKSCDKTHTCPPCPAPEFEGGPSVFLFPPKPKDTLMISRTPEVTCVVVDVSHEDPEVKFNWYVDGVEVHNAKTKPREEQYNSTYRVVSVLTVLHQDWLNGKEYKCKVSNKALPASIEKTISKAKGQPREPQVCTLPPSREEMTKNQVSLSCAVKGFYPSDIAVEWESNGQPENNYKTTPPVLDSDGSFFLVSKLTVDKSRWQQGNVFSCSVMHEALHNRFTQKSLSLSPGK
light: DIQLTQSPSTLSASVGDRVTITCRASESLDNYGIRFLTWFQQKPGKAPKLLMYAASNQGSGVPSRFSGSGSGTEFTLTISSLQPDDFATYYCQQTKEVPWSFGQGTKVEVKRTVAAPSVFIFPPSDEQLKSGTASVVCLLNNFYPREAKVQWKVDNALQSGNSQESVTEQDSKDSTYSLSSTLTLSKADYEKHKVYACEVTHQGLSSPVTKSFNRGEC
Turning to B2, the Kd with recombinant CD3 proteins [3] stood at 39.5 nM; in the assay with recombinant CD3 proteins [8] it was 44.9 nM. Moreover, the results for the koff with recombinant CD3 proteins [3] and with recombinant CD3 proteins [8] were 0.0102 s⁻¹ and 0.0111 s⁻¹, respectively. In addition, the results for the kon with recombinant CD3 proteins [3] and in the assay with recombinant CD3 proteins [8] were 259000 M⁻¹ s⁻¹ and 248000 M⁻¹ s⁻¹, respectively. Further, the “% Positive” value in [4] and in [7] was 99.4% throughout. Moreover, the gMFI in [4] came out at 178000 gMFI; in assay [5], 15500 gMFI; in assay [7] it was 66400 gMFI; in assay [10] it was 21600 gMFI. Further, the figures for the “Jurkat WT/KO (Fold)” value in assay [6] and in assay [9] were 5.2 fold and 4 fold, respectively.

B3: CD3 × CD33-BspAb123 (bispecific antibody)
chain 1: QTVVTQEPSFSVSPGGTVTLTCGLNSGSVSTSYYPSWYQQTPGQTPRTLIYSTNTRSSGVPDRFSGSILGNKAALTITGAQADDESDYYCVLYMGSGIWVFGCGTKLTVLGGGGSGGGGSGGGGSGGGGSQVQLVQSGAEVKKPGASLKVSCKASGYTFTSYYMHWVRQAPGQCLEWMGIINPSNGNTISAQKFQGRVTMTRDTSTSTVYMEMSSLRSEDTAVYYCVRSWGYYVMDVWGQGTTVTVSSDKTHTCPPCPAPEFEGGPSVFLFPPKPKDTLMISRTPEVTCVVVDVSHEDPEVKFNWYVDGVEVHNAKTKPREEQYNSTYRVVSVLTVLHQDWLNGKEYKCKVSNKALPASIEKTISKAKGQPREPQVYTLPPCREEMTKNQVSLWCLVKGFYPSDIAVEWESNGQPENNYKTTPPVLDSDGSFFLYSKLTVDKSRWQQGNVFSCSVMHEALHNHYTQKSLSLSPGK
chain 2: B2 heavy
chain 3: B2 light
B3: in the assay with recombinant CD3 proteins [11], the Kd is 12 nM, the koff was found to be 0.00103 s⁻¹ and the association rate constant (kon) came out at 85500 M⁻¹ s⁻¹.

B4: CD3 × CD33-BspAb125 (bispecific antibody)
chain 1: not shown
chain 2: B2 heavy
chain 3: B2 light
With B4, in the assay with recombinant CD3 proteins [12], the Kd turned out to be 319 nM, the koff stood at 0.00375 s⁻¹ and the kon worked out at 11800 M⁻¹ s⁻¹.

B5: CD3 × CD33-BspAb122 (bispecific antibody)
chain 1: QTVVTQEPSFSVSPGGTVTLTCGLSSGSVSTSYYPSWYQQTPGQAPRTLIYSTNTRSSGVPDRFSGSILGNKAALTITGAQADDESDYYCVLYMGSGIWVFGCGTKLTVLGGGGSGGGGSGGGGSGGGGSEVQLVESGGGLVKPGGSLRLSCAASGFTVSNYSMNWVRQAPGKCLEWVSSISRSSSYIYYADSVKGRFTISRDNAKNSLFLQMNSLRAEDTAVYYCARERWELLYFDYWGQGTLVTVSSDKTHTCPPCPAPEFEGGPSVFLFPPKPKDTLMISRTPEVTCVVVDVSHEDPEVKFNWYVDGVEVHNAKTKPREEQYNSTYRVVSVLTVLHQDWLNGKEYKCKVSNKALPASIEKTISKAKGQPREPQVYTLPPCREEMTKNQVSLWCLVKGFYPSDIAVEWESNGQPENNYKTTPPVLDSDGSFFLYSKLTVDKSRWQQGNVFSCSVMHEALHNHYTQKSLSLSPGK
chain 2: B2 heavy
chain 3: B2 light
As for B5, in the assay with recombinant CD3 proteins [13], the Kd is below 1 pM, the koff is below 1e-07 s⁻¹ and the kon worked out at 15400 M⁻¹ s⁻¹.

B6: Control Humanized anti-CD3 (low affinity) scFv-Fc knob/TM (bispecific antibody)
scFv: B2 scFv with A113D
heavy: B2 heavy
light: B2 light
As for B6, the results for the “% Positive” value in assay [4] and in assay [7] were 7.9% and 1.5%, respectively. Also, the gMFI was determined as 3410 gMFI in [4], 1920 gMFI in [5], 2070 gMFI in assay [7] and 2090 gMFI in assay [10]. The “Jurkat WT/KO (Fold)” value amounted to 1 fold in assay [6] and 0.9 fold in assay [9]. Further, the Kd was 4.27 nM with recombinant CD3 proteins [14] and 4.38 nM in the assay with recombinant CD3 proteins [15]. In addition, the koff worked out at 5.33e-05 s⁻¹ with recombinant CD3 proteins [14] and 5.48e-05 s⁻¹ in the assay with recombinant CD3 proteins [15]. In addition, the kon with recombinant CD3 proteins [14] and in the assay with recombinant CD3 proteins [15] was 12500 M⁻¹ s⁻¹ each time.

B7: ABL-CD3-16 (antibody, V domains shown)
VH: EVQLVESGGGLVQPGGSLRLSCAASGFTFSRYWMTWVRQAPGKGLEWVANIKEDGSEKYCVDSVKGRFTISRDNAKNSLYLQLNSLRAEDTAVYYCARERRTGYFDYWGQGTLVTVSS
VL: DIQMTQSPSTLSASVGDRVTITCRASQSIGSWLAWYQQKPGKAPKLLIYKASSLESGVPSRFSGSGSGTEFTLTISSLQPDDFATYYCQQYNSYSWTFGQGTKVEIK
notes: as for B1
With B7, in [16], the Kd was found to be 29.5 nM, the Response amounted to 0.19, the koff was 0.00153 s⁻¹ and the on-rate (kon) was 51900 M⁻¹ s⁻¹. Also, in [17], the Kd was below 1 pM, the koff is below 1e-07 s⁻¹ and the kon was 36200 M⁻¹ s⁻¹.

As usually defined, the Kd is the concentration at which binding is half-saturated. Broadly, the koff is the rate constant with which the complex falls apart. By kon is commonly meant a measure of how fast the partners come together.

Source of the values: patent publication US20260167721A1 (ABLEXIS, published 2026).
